Laboratory results as given in US10005817 (EUMEDERIS PHARMACEUTICALS, dated 2018).
Non-standard residues stand in square brackets, D forms with d. No end group written: not given here. *: point of attachment. Dmt = Cc1cc(O)cc(C)c1C[C@H](N)C(=O)O; Tic = O=C(O)[C@@H]1Cc2ccccc2CN1; NHBn = c1ccc(CN*)cc1

How the values were obtained:
mu opioid receptor = assay: cell-based or functional assay
delta2 opioid receptor = assay: cell-based or functional assay

mu opioid receptor, sequence (P35372 whole entry): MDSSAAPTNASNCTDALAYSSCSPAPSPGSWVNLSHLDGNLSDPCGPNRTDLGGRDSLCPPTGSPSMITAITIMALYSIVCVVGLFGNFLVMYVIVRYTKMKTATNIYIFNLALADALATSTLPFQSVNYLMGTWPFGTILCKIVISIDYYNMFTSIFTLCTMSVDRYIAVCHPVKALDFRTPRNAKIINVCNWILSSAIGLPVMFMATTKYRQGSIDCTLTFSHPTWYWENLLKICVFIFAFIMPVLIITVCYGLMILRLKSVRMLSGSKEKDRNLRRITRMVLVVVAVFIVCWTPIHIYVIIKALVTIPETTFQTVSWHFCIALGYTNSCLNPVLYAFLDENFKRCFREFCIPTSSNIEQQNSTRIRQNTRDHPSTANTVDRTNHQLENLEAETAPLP

Binder	MOP agonist EC50 (mu opioid receptor) [nM]	DOP antagonist IC50 (delta2 opioid receptor) [nM]
[Dmt][Tic]FK(1‑methyl β‑D‑glucuronyl)-NHBn [EU-A620]	480	< 0.1
H-[Dmt][Tic]FK(1'‑methyl β‑D‑glucuronyl)-NH2 [EU-A178]	–	< 0.1
[Dmt][Tic]F[dK](1‑methyl β‑D‑glucuronyl)-NHBn [EU-A639]	280	< 0.1
H-[Dmt][Tic]FK(1'‑octyl β‑D‑glucuronyl)-NH2 [EU-A180]	36	< 0.1
